Assay [1] concerns the target T1, IL-5 (human, UniProt P05113 20-134). In words: cell-based or functional assay.
The target in assay [2] is T1, IL-5. In words: competition ELISA: IL-5R coated, biotin-IL-5 at EC80 mixed with antibody dilutions, OD450. The method, then: (§1) (3) A biotin-conjugated ligand protein (IL-4 or IL-5) was diluted to 2 times the EC80 concentration, and the antibody was diluted to 2 times the initial concentration, and 5-fold gradient dilution was carried out. The ligand protein, and the diluted antibody (dupilumab, 4E9V10-2B3V2, 4E9-V0 or 2B3 (SEQ ID NO. 25)) and hIgG respectively, were transferred at 1:1 into a new dispensing plate and mixed well.
(§2) (7) A stopping solution was added, and the values of samples in different wells were immediately read at the wavelength of 450 nm with a microplate reader and recorded as OD450. EC50 was calculated by plotting. 4E9-V0, non-humanized anti-[…] single domain antibody 2B3, dupilumab, reslizumab, and hIgG were used as controls, and the results are shown in Tables 6 and 7 and FIGS. 5 and 6, respectively.
(ELISA stands for enzyme-linked immunosorbent assay.)

In assay [3] the target is T2, IL-4Rα (on TF-1 cells) (UniProt P24394 26-825, limits assumed). Nature of the assay: cell-based or functional assay.
Assay [4] deals with T3, IL-4Rα (receptor protein / antigen) (UniProt P24394 26-232, limits assumed).
T3 construct: also called IL-4 receptor subunit α
Nature of the assay: competition ELISA: IL-4Rα coated, biotin-IL-4 at EC80 mixed with antibody dilutions, OD450. The method, then:
as §1, §2

In assay [5] the target is T2, IL-4Rα (on TF-1 cells). In words: cell-based or functional assay. The source holds these as a separate data set.
For assay [6], the target named is T3, IL-4Rα (receptor protein / antigen). In words: BLI (Octet 96), antibody loaded on sensor, antigen in solution. The method, then: (§3) Assay steps: Octet 96 and Data Acquisition software in the supporting computer were run. The bottom and sides of an acquisition probe were cleaned using a lens tissue with an appropriate amount of 75% ethanol, and the instrument was preheated for 15 min or more. Sensor pre-wetting: before the assay, the Sensor was soaked in the SD buffer for 10 min or more for later use. Then, the machine procedure was set according to: baseline→antibody→baseline→antigen binding→antigen dissociation→sensor regeneration for assay operation.

Assay [7] shares this target. In words: BLI (Octet 96), antibody loaded on sensor, antigen 200 nM and 2-fold dilutions in solution. The method, then: as §3
Background: In BLI a coated tip is dipped into the sample, and binding shifts an interference pattern.

Assay [8] addresses T2, IL-4Rα (on TF-1 cells). In words: cell-based or functional assay. The source holds these as a separate data set.
Assay [9] addresses T2, IL-4Rα (on TF-1 cells). Nature of the assay: cell-based or functional assay. This is another data set of the same source.

The source of these data is patent publication US20230279123A1 (REGENECORE BIOTECH, published 2023).

T1 sequence (P05113 20-134 limits assumed): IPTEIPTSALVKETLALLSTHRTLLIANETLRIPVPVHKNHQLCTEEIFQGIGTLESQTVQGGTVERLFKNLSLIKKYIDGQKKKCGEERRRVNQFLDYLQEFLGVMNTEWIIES

B1: reslizumab (antibody, V domains shown)
VH: EVQLVESGGGLVQPGGSLRLSCAVSGLSLTSNSVNWIRQAPGKGLEWVGLIWSNGDTDYNSAIKSRFTISRDTSKSTVYLQMNSLRAEDTAVYYCAREYYGYFDYWGQGTLVTVSS
VL: DIQMTQSPSSLSASVGDRVTITCLASEGISSYLAWYQQKPGKAPKLLIYGANSLQTGVPSRFSGSGSATDYTLTISSLQPEDFATYYCQQSYKFPNTFGQGTKVEVK
Regarding B1, the “EC50 of neutralizing IL-5-induced TF-1 cell proliferation” value in the assay with IL-5 [1] was 0.000122 µM. Besides, in the assay with IL-5 [2], the EC50 (usually the concentration that produces a half-maximal response) turned out to be 0.00621 µM.

B2: humanized anti-IL-4Rα single domain antibody 4E9-V11 (VHH)
VHH: QVQLVESGGGLVQPGGSLRLSCAASGDFYCMAWFRQAPGKEREAVAIRSGGRSTYYADSVKGRFTISRDNSKNTLYLQMNSLKAEDTAVYYCAVGVDGNCRNYWGQGTLVTVSS
Regarding B2, the “EC50 of neutralizing IL-4-induced TF-1 proliferation” value with IL-4Rα (on TF-1 cells) [3] was 1880 µM.

B3: humanized anti-IL-4Rα single domain antibody 4E9-V7 (VHH)
VHH: QVQLVESGGGLVQPGGSLRLSCAASGDFYCMAWFRQAPGKEREAVAIRSGGRSTYLADSVKGRFTISRDNSKNTLYLQMNSLKAEDTAVYYCAVGVDGNCRNYWGQGTLVTVSS
Consider B3, for which, in the assay with IL-4Rα (on TF-1 cells) [3], the “EC50 of neutralizing IL-4-induced TF-1 proliferation” value was 0.185 µM.

B4: dupilumab (antibody, V domains shown)
VH: EVQLVESGGGLEQPGGSLRLSCAGSGFTFRDYAMTWVRQAPGKGLEWVSSISGSGGNTYYADSVKGRFTISRDNSKNTLYLQMNSLRAEDTAVYYCAKDRLSITIRPRYYGLDVWGQGTTVTVSS
VL: DIVMTQSPLSLPVTPGEPASISCRSSQSLLYSIGYNYLDWYLQKSGQSPQLLIYLGSNRASGVPDRFSGSGSGTDFTLKISRVEAEDVGFYYCMQALQTPYTFGQGTKLEIKR
On to B4, for which, in [4], the EC50 stood at 0.00432 µM.

B5: non-humanized anti-IL-5 single domain antibody 2B3 (VHH)
VHH: QVQLVESGGGSVQAGGSLRLSCAASGNTFSFSTYCMGWFRQSPGKEREGSLATIYDGSTAYAGSVKGRFTISVDNAKNILYLQMNNLKPEDTAMYYCAAAKYCMFWSDPSYWGQGTQVTVSS
As for B5, the “EC50 of neutralizing IL-5-induced TF-1 cell proliferation” value with IL-5 [1] was 0.000336 µM. Besides, the EC50 with IL-5 [2] is 0.00691 µM.

B6: humanized anti-IL-4Rα single domain antibody 4E9-V6 (VHH)
VHH: QVQLVESGGGLVQPGGSLRLSCAASGDFYCMAWFRQAPGKEREAVATIRSGGRSTYYADSVKGRFTISRDNSKNTLYLQMNSLKAEDTAVYYCAVGVDGNCRNYWGQGTLVTVSS
For B6, the “EC50 of neutralizing IL-4-induced TF-1 proliferation” value with IL-4Rα (on TF-1 cells) [3] turned out to be 0.000707 µM. The “EC50 of neutralizing IL-13-induced TF-1 proliferation” value with IL-4Rα (on TF-1 cells) [5] came out at 0.000759 µM. For the same molecule, in [6], the Kd (commonly a measure of binding affinity in units of concentration) was determined as 0.00305 µM; the koff (commonly the first-order rate constant of dissociation) stood at 0.000506 s⁻¹; the kon (as a rule, the rate constant with which the complex forms) came to 166000 M⁻¹ s⁻¹.

B7: humanized anti-IL-4Rα single domain antibody 4E9-V9 (VHH)
VHH: QVQLVESGGGLVQPGGSLRLSCAASGDFYCMAWFRQAPGKERERVATIRSGGRSTYYADSVKGRFTISRDNSKNTLYLQMNSLKAEDTAVYYCAVGVDGNCRNYWGQGTLVTVSS
Turning to B7, the “EC50 of neutralizing IL-4-induced TF-1 proliferation” value in the assay with IL-4Rα (on TF-1 cells) [3] was 0.000752 µM.

B8: humanized anti-IL-4Rα single domain antibody 4E9-V3 (VHH)
VHH: QVQLVESGGGLVQPGGSLRLSCAASGDFYCLGWFRQAPGQEREAVAAIRSGGRSTYYADSVKGRFTISRDNSKNTLYLQMNSLKAEDTAVYYCAVGVDGNCRNYWGQGTLVTVSS
For B8, the “EC50 of neutralizing IL-4-induced TF-1 proliferation” value in the assay with IL-4Rα (on TF-1 cells) [3] was determined as 0.0138 µM.

B9: humanized anti-IL-4Rα single domain antibody 4E9-V8 (VHH)
VHH: QVQLVESGGGLVQPGGSLRLSCAASGDFYCMAWFRQAPGKERERVAKIRSGGRSTYLADSVKGRFTISRDNSKNTLYLQMNSLKAEDTAVYYCAVGVDGNCRNYWGQGTLVTVSS
On to B9, for which the “EC50 of neutralizing IL-4-induced TF-1 proliferation” value in the assay with IL-4Rα (on TF-1 cells) [3] is 0.00277 µM. The “EC50 of neutralizing IL-13-induced TF-1 proliferation” value in the assay with IL-4Rα (on TF-1 cells) [5] came to 0.00311 µM.

B10: humanized anti-IL-4Rα single domain antibody 4E9-V14 (VHH)
VHH: QVQLVESGGGLVQPGGSLRLSCAASGDFYCMAWFRQAPGKEREAVATIRSGGRSTYYADSVKGRFTISRDNSKNTLYLQMNSLRAEDTAVYYCAVGVDGNCRNYWGQGTLVTVSS
Take B10: the “EC50 of neutralizing IL-4-induced TF-1 proliferation” value with IL-4Rα (on TF-1 cells) [3] came to 18600 µM.

B11: humanized anti-IL-4Rα single domain antibody 4E9-V5 (VHH)
VHH: QVQLVESGGGLVQPGGSLRLSCAASGDFYCLGWFRQAPGQGLEAVAAIRSGGRSTYYADSVKGRFTISRDNSKNTLYLQMNSLRAEDTAVYYCAVGVDANCRNYWGQGTLVTVSS
On to B11, for which, in the assay with IL-4Rα (on TF-1 cells) [3], the “EC50 of neutralizing IL-4-induced TF-1 proliferation” value turned out to be 0.000746 µM.

B12: humanized anti-IL-4Rα single domain antibody 4E9-V2 (VHH)
VHH: QVQLVESGGGLVQPGGSLRLSCAASGDFYCLGWFRQAPGQEREAVAAIRSGGRSTYYADSVKGRFTISRDNSKNTLYLQMNSLRAEDTAVYYCAVGVDGNCRNYWGQGTLVTVSS
Consider B12, for which the “EC50 of neutralizing IL-4-induced TF-1 proliferation” value with IL-4Rα (on TF-1 cells) [3] was 0.0521 µM.

B13: humanized anti-IL-4Rα single domain antibody 4E9-V13 (VHH)
VHH: QVQLVESGGGLVQPGGSLRLSCAASGDFYCMAWFRQAPGKEREAVATIRSGGRSTYYADSVKGRFTISRDNSKNTVYLQMNSLKAEDTAVYYCAVGVDGNCRNYWGQGTLVTVSS
Take B13: the “EC50 of neutralizing IL-4-induced TF-1 proliferation” value with IL-4Rα (on TF-1 cells) [3] is 0.00452 µM. For the same molecule, the “EC50 of neutralizing IL-13-induced TF-1 proliferation” value with IL-4Rα (on TF-1 cells) [5] was determined as 0.0042 µM. For the same molecule, in assay [6], the affinity, expressed as Kd, was 0.00341 µM; the koff is 0.000565 s⁻¹; the kon is 166000 M⁻¹ s⁻¹.

B14: humanized anti-IL-4Rα single domain antibody 4E9-V10 (VHH)
VHH: QVQLVESGGGLVQPGGSLRLSCAASGDFYCMAWFRQAPGKEREAVAAIRSGGRSTYYADSVKGRFTISRDNSKNTLYLQMNSLKAEDTAVYYCAVGVDGNCRNYWGQGTLVTVSS
Turning to B14, the “EC50 of neutralizing IL-4-induced TF-1 proliferation” value in the assay with IL-4Rα (on TF-1 cells) [3] worked out at 0.000271 µM. The “EC50 of neutralizing IL-13-induced TF-1 proliferation” value with IL-4Rα (on TF-1 cells) [5] is 0.00018 µM. In [6], this molecule displayed a koff of 0.000534 s⁻¹ and a kon of 173000 M⁻¹ s⁻¹. The same molecule registered a Kd in assay [7] of 0.00308 µM.

B15: humanized anti-IL-4Rα single domain antibody 4E9-V12 (VHH)
VHH: QVQLVESGGGLVQPGGSLRLSCAASGDFYCMAWFRQAPGKEREAVATIRSGGRSTYLADSVKGRFTISRDNSKNTLYLQMNSLKAEDTAVYYCAVGVDGNCRNYWGQGTLVTVSS
For the molecule B15, in the assay with IL-4Rα (on TF-1 cells) [3], the “EC50 of neutralizing IL-4-induced TF-1 proliferation” value stood at 0.00203 µM. In addition, the “EC50 of neutralizing IL-13-induced TF-1 proliferation” value with IL-4Rα (on TF-1 cells) [5] was found to be 0.00211 µM. In assay [6], the Kd was found to be 0.0093 µM, the koff stood at 0.000268 s⁻¹ and the kon amounted to 28800 M⁻¹ s⁻¹.

B16: anti-IL-4Rα single domain antibody 4E9 (4E9-V0) (VHH)
VHH: QVQLVESGGGSVQAGGSLRLSCAASGDFYCMAWFRQAPGKEREGVATIRSGGRSTYYADSVKGRFTISKDNAKDTLYLQMNSLKPEDTAMYYCAVGVDGNCRNYWGQGTQVTVSS
notes: also called non-humanized antibody
Consider B16, for which the “EC50 of neutralizing IL-4-induced TF-1 cell proliferation” value with IL-4Rα (on TF-1 cells) [8] was determined as 0.000281 µM. Also, the “EC50 of neutralizing IL-13-induced TF-1 cell proliferation” value in the assay with IL-4Rα (on TF-1 cells) [9] stood at 0.000229 µM. Also, in [4], the EC50 was determined as 0.00445 µM.
